T1: mouse ROBO4 (pCI-mROBO4-transfected HEK293 cells) (mouse, UniProt Q8C310 28-1012)
T1 sequence: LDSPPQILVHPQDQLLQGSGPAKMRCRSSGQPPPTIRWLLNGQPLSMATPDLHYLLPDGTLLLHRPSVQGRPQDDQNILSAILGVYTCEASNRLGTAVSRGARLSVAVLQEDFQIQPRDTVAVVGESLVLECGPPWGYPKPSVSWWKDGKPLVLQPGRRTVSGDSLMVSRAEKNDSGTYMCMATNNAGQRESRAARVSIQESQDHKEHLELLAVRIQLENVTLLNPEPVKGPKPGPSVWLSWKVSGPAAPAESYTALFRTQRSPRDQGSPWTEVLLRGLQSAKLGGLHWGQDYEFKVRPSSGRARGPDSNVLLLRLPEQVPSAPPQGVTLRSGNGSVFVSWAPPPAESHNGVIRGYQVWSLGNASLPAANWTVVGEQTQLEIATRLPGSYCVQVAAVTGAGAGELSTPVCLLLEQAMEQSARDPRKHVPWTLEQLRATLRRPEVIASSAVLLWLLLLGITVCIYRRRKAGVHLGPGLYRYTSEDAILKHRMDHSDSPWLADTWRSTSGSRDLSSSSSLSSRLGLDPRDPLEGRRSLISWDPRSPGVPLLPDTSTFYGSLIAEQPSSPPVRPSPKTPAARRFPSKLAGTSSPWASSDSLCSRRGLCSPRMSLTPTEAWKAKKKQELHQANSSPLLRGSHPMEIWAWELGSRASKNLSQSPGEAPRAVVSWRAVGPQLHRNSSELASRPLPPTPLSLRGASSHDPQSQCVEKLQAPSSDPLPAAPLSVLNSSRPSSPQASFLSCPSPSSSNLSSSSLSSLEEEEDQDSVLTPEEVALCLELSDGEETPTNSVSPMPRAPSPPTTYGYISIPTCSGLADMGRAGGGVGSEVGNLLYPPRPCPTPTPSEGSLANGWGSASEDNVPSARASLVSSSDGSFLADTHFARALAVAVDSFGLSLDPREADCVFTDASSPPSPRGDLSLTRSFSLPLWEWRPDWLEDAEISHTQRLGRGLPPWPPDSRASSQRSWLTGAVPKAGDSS

T2: rat ROBO4 (pCI-raROBO4-transfected HEK293 cells) (rat, UniProt Q80W87 38-949 at identity 0.93))
T2 chain: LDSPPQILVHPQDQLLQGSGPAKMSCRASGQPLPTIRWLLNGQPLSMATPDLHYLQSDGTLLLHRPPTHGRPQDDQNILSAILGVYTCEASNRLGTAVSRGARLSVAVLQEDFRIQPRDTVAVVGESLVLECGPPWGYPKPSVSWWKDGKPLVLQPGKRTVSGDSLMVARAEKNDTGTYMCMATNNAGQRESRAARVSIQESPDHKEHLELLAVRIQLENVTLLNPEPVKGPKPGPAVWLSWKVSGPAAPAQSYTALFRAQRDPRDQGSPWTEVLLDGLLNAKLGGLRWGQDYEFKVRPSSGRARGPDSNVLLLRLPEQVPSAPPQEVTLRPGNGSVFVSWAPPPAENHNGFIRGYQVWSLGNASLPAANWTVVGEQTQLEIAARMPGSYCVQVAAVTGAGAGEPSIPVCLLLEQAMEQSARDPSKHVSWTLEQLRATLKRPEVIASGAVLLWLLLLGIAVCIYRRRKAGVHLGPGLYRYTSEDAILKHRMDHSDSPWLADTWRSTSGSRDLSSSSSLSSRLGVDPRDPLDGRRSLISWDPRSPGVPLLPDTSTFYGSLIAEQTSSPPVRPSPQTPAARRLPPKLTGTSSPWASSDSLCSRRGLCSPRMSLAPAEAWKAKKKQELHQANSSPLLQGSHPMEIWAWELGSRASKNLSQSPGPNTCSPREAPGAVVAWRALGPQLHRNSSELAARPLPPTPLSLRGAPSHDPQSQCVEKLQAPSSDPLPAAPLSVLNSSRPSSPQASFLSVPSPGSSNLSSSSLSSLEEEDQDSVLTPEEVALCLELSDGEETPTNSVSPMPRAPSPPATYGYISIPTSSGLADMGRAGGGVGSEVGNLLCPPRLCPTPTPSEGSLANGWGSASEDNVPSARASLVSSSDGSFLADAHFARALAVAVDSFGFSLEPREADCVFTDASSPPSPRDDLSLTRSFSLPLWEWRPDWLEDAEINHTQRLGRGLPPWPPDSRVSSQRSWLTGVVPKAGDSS

B1: humanized MAb1 antibody H-1143 (antibody, human IgG2, kappa, V domains shown)
VH: EVQLVESGGGLVQPGGSLRLSCAASGFTFSTYAMSWVRQAPGKGLEWVATISQGGTYTYYPDSVKGRFTISRDNAKNTLYLQMNSLRAEDTAVYYCARLIYYDYLDYWGQGTLVTVSS
VL: DIVMTQSPLSLPVTLGEPASISCRSSQSLENENKNLYLNWYLQKPGQSPQLLIYRVSNRFSGVPDRFSGSGSGTDFTLKISRVEAEDVGVYYCLQVTHVPWTFGPGTKVDIKR
notes: Human IgG2 / kappa constant regions; also called hMAb1-H2-type heavy chain + hMAb1-L2-type light chain
B2: humanized MAb1 antibody H-2143 (antibody, human IgG2, kappa, V domains shown)
VH: EVQLVESGGGLVQPGGSLRLSCAASGFTFSTYAMSWVRQAPGKRLEWVATISQGGTYTYYPDSVKGRFTISRDNAKNTLYLQMNSLRAEDTAVYYCARLIYYDYLDYWGQGTLVTVSS
VL: DIVMTQSPLSLPVTLGEPASISCRSSQSLENENKNLYLNWYLQKPGQSPQLLIYRVSNRFSGVPDRFSGSGSGTDFTLKISRVEAEDVGVYYCLQVTHVPWTFGPGTKVDIKR
notes: Human IgG2 / kappa constant regions; also called hMAb1-H4-type heavy chain + hMAb1-L2-type light chain

Tests used:
[1] = target: T1, mouse ROBO4 (pCI-mROBO4-transfected …); test: flow cytometry (FC500), HEK293 cells transfected with pCI-mROBO4, FITC goat anti-human IgG Fc; control histogram IgG (human IgG)
[2] = target: T2, rat ROBO4 (pCI-raROBO4-transfected …); test: flow cytometry (FC500), HEK293 cells transfected with pCI-raROBO4, FITC goat anti-human IgG Fc; control histogram IgG (human IgG)

Row | Binder | binding result [1] | binding result [2]
1 | B1 | no binding (tested: 10 µg/mL) | 
2 | B2 |  | no binding (tested: 10 µg/mL)

Source: patent US20150098945A1 (Daiichi Sankyo, published 2015)
